From publication PMC11041768, “Broad sialic acid usage amongst species D human adenovirus” (npj Viruses, 2023)

Experiments:
[1] = biological target: T1, HAdV-D53 fiber-knob protein (Human adenovirus 53, UniProt E5RWD1); test: X-ray crystal structure of briefly soaked crystal; format: binding; conditions: 10 mM, very short soak; conserved apical pocket; beta anomer modelled
T1 construct: gene L5; trimer

[2] = biological target: T2, HAdV-D25 fiber-knob protein (Human adenovirus 25, UniProt M0QUM1); test: X-ray crystal structure of soaked crystal; format: binding; conditions: 10 mM soak; conserved apical pocket; mixture of alpha and beta anomers
T2 construct: gene L5; trimer

[3] = biological target: T3, HAdV-D30 fiber-knob protein (Human adenovirus 30, UniProt M0QTV3); test: X-ray crystal structure of soaked crystal; format: binding; conditions: 10 mM soak; conserved apical pocket; mixture of alpha and beta anomers
T3 construct: gene L5; trimer

[4] = biological target: T4, HAdV-D29 fiber-knob protein (Human adenovirus 29, UniProt E1CIQ3); test: X-ray crystal structure of soaked crystal; format: binding; conditions: 10 mM soak; conserved apical pocket; mixture of alpha and beta anomers
T4 construct: gene L5; trimer

[5] = biological target: HAdV-D15 fiber knob protein (human adenovirus D15); test: crystal structure; apo crystals of recombinant fiber knob protein; Pact Premier Screen, 18 °C, data at 100 K; trimer seen in the structure
[6] = biological target: HAdV-D24 fiber knob protein (human adenovirus D24); test: as above
[7] = biological target: HAdV-D29 fiber knob protein (human adenovirus D29); test: as above
[8] = biological target: HAdV-D30 fiber knob protein (human adenovirus D30); test: as above
[9] = biological target: HAdV-D32 fiber knob protein (human adenovirus D32); test: as above
[10] = biological target: HAdV-D53 fiber knob protein (human adenovirus D53); test: as above

For `CC(=O)N[C@H]1[C@H]([C@H](O)[C@H](O)CO)OC(O)(C(=O)O)C[C@@H]1O` (mixture of isomers) [sialic acid], the “X-ray crystal structure of briefly soaked crystal” value [1] was “short soak allowed only two of four trimers in the asymmetric unit to bind β-sialic acid”, the “X-ray crystal structure of soaked crystal” value [2] was “four structures of HAdV-D25, D29, D30 and D53 in complex with sialic acid” and the “X-ray crystal structure of soaked crystal” value [3] was “four structures of HAdV-D25, D29, D30 and D53 in complex with sialic acid”. For the same compound, the “X-ray crystal structure of soaked crystal” value [4] was “four structures of HAdV-D25, D29, D30 and D53 in complex with sialic acid”.
In the case of “HAdV-D15 fiber knob protein (domain or fragment)”, the stoichiometry N [5] is reported as 3.
For “HAdV-D24 fiber knob protein (domain or fragment)”, the stoichiometry N [6] was 3.
In the case of “HAdV-D29 fiber knob protein (domain or fragment)”, the stoichiometry N [7] is reported as 3.
With “HAdV-D30 fiber knob protein (domain or fragment)” the stoichiometry N [8] was 3.
Compound “HAdV-D32 fiber knob protein (domain or fragment)” has a stoichiometry N [9] of 3.
For “HAdV-D53 fiber knob protein (domain or fragment)”, the stoichiometry N [10] was 3.
